Experimental data from PMC11539623 (Biochimica et biophysica acta. Gene regulatory mechanisms, 2023).

Biological target: T1, His-tagged full length Taf14 (S. cerevisiae, UniProt P35189 1-244, labeled with His-Tag Labeling Kit RED-tris-NTA (2nd Generation))
T1 sequence (looked up): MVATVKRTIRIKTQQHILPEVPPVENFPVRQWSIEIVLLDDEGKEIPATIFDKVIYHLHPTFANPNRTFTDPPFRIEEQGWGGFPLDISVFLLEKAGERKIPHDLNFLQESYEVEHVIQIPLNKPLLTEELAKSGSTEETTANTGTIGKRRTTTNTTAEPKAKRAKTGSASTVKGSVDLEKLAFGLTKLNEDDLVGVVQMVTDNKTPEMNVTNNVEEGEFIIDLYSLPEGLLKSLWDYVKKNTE
Assay: MST

Binder: GHSLLLSIKLPG (peptide, UniProt P18480 782-793, looked up) [Snf5 ET domain binding motif peptide (aa 782-793)]
- fold weaker binding than the isolated Taf14ET: 7 fold
